Consider four molecules from PMC8698692, “Generation of a Novel High-Affinity Antibody Binding to PCSK9 Catalytic Domain with Slow Dissociation Rate by CDR-Grafting, Alanine Scanning and Saturated Site-Directed Mutagenesis for Favorably Treating Hypercholesterolemia” (Biomedicines, 2021).

For orientation: Kd means a measure of binding affinity in units of concentration. By koff is commonly meant a measure of how fast the partners let go of each other.

Test [1] concerns the target T1, human proprotein convertase subtilisin/kexin type 9 (hPCSK9), recombinant (Homo sapiens, UniProt Q8NBP7, biotinylated with a biotinylation kit for the BLI assay only (sites not given)).
T1 construct: signal peptide in the construct; source: CHO-3E7, transiently transfected (pTT5-hPCSK9), supernatant purified (Ni-IMAC, Superdex 200 SEC)
Nature of the test: BLI; ForteBio Octet QKe; biotinylated hPCSK9 (50 μg/mL) immobilised on streptavidin biosensors; 2-fold dilutions of antibody (scFvs 6000-93.75 nM, mAbs 800-12.5 nM), association 300 s or longer, dissociation 600 s in SD buffer (PBS, 0.02% Tween 20, 0.1% BSA, pH 7.4); global fit. Particulars: both partners purified. A general note: In BLI a coated tip is dipped into the sample, and binding shifts an interference pattern.

Test [2] concerns the target T1, human proprotein convertase …. The test can be described thus: ELISA; non-competitive ELISA; hPCSK9 coated at 1 μg/mL and 2 μg/mL; purified m5E12 at 10^-1 to 10^5 ng/mL; HRP goat anti-mouse IgG; Kaff = (n − 1)/2(n[Ab']t − [Ab]t). Particulars: both partners purified.

T1 sequence (Q8NBP7 31-692): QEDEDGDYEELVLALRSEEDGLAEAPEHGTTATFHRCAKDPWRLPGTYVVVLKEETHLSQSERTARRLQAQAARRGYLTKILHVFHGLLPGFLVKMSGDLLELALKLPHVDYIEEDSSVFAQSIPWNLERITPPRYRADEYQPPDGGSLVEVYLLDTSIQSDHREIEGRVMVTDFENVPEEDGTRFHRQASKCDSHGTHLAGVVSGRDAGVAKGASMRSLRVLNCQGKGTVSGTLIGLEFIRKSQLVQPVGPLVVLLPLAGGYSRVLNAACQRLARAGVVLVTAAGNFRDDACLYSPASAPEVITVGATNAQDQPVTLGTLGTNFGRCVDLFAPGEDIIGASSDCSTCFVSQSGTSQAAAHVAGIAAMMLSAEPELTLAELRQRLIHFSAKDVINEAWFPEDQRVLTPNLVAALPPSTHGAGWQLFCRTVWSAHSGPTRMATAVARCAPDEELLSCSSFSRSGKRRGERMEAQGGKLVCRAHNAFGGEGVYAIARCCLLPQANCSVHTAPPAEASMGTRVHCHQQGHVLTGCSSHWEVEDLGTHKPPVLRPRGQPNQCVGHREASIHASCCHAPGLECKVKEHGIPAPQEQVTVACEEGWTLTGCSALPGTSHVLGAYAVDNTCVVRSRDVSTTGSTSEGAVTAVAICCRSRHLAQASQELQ

B1: h5E12scFv, humanized 5E12 scFv by CDR grafting without back mutation (scFv, V domains shown)
VH: QVQLVQSGAEVKKPGASVKVSCKASGYTFTSYWMHWVRQAPGQGLEWMGEINPSNGRTDHSEKFKNRVTMTRDTSTSTVYMELSSLRSEDTAVYYCARFHYDYDYFDYWGQGTLVTVSS
VL: DIVMTQSPSSLSASVGDRVTITCKASRNVGNSVGWYQQKPGKAPKLLIYSASYRYSGVPSRFSGSGSGTDFTLTISSLQPEDFATYYCQQYNRYPLTFGQGTKVEIK
notes: VH of h5E12scFv: CDRs of m5E12 grafted onto the human heavy chain GenBank AMK70123.1; (Gly4Ser)3 linker; the format VH-(Gly4Ser)3-VL is told for m5E12scFv, of which this is the humanized form; VL of h5E12scFv: CDRs of m5E12 grafted onto the human light chain GenBank APZ85158.1; Cloned in pET-27b with the pelB signal peptide; isolated from the periplasm; source: E. coli BL21 (DE3), periplasm, …
On to B1, for which, in test [1], the Kd was determined as 171 nM and the koff was found to be 0.00108 s⁻¹.

B2: h5E12scFv-bm, humanized 5E12 scFv by CDR grafting with back mutation (scFv, V domains shown)
VH: EVQLVQSGAEVKKPGASVKVSCKASGYTFTSYWMHWVKQAPGQGLEWIGEINPSNGRTDHSEKFKNKATMTVDTSTSTAYLELSSLRSEDTSVYYCARFHYDYDYFDYWGQGTLVTVSS
VL: DIVITQSTSSLSASVGDRVTITCKASRNVGNSVGWYQQKPGKAPKILIYSASYRYSGVHSRFSGSGSGTDFTLTISSLQPEDFAEYFCQQYNRYPLTFGEGTKVEIK
notes: (Gly4Ser)3 linker; the format VH-(Gly4Ser)3-VL is told for m5E12scFv, of which this is a humanized form; Cloned in pET-27b with the pelB signal peptide; isolated from the periplasm; source: E. coli BL21 (DE3), periplasm, purified (Ni-NTA, Superdex 75 SEC)
Regarding B2, the koff in test [1] was 0.01 s⁻¹.

B3: m5E12scFv, murine 5E12 single-chain variable fragment (scFv, V domains shown)
VH: EVQLEQSGAELVKPGASVKLSCKASGYTFTSYWMHWVKQRPGQGLEWIGEINPSNGRTDHSEKFKNKATLTVDKSSTTAYLQLSSLTSEDSSVYYCARFHYDYDYFDYWGQGTTLTVSS
VL: DIVITQSTKFMSTSVGDRVSVTCKASRNVGNSVGWYQQKPGQSPKILIYSASYRYSGVHDRFTGSGSGTDFTLTISNVQSEDLAEYFCQQYNRYPLTFGEGTKLELK
notes: VH of m5E12; (Gly4Ser)3 linker between VH and VL; VL of m5E12; Cloned in pET-27b with the pelB signal peptide; isolated from the periplasm; also called murine 5E12 scFv; source: E. coli BL21 (DE3), periplasm, purified (Ni-NTA, Superdex 75 SEC)
In the case of B3, in test [1], the off-rate (koff) stood at 0.00744 s⁻¹.

B4: m5E12, murine monoclonal antibody against hPCSK9 (IgG1, kappa) (antibody, V domains shown)
VH: EVQLEQSGAELVKPGASVKLSCKASGYTFTSYWMHWVKQRPGQGLEWIGEINPSNGRTDHSEKFKNKATLTVDKSSTTAYLQLSSLTSEDSSVYYCARFHYDYDYFDYWGQGTTLTVSS
VL: DIVITQSTKFMSTSVGDRVSVTCKASRNVGNSVGWYQQKPGQSPKILIYSASYRYSGVHDRFTGSGSGTDFTLTISNVQSEDLAEYFCQQYNRYPLTFGEGTKLELK
notes: VH of m5E12; mouse IgG1 heavy-chain constant region (isotype found with a kit; BALB/c mice); VL of m5E12; mouse kappa light-chain constant region (isotype found with a kit); Mouse IgG1 kappa; also called mAb 5E12; source: hybridoma 5E12 supernatant (screening ELISA); mouse ascites, purified (protein A)
Take B4: the Ka in test [2] stood at 1.04e+09 M⁻¹.
